# Measured values published in patent publication US20260069656A1, “Nutritive Polypeptides and Formulations Thereof, and Methods of Production and Use Thereof” (Axcella Health Inc., priority 2013, published 2026).
# Assay: Intact half-life during simulated gastric fluid (SGF) digestion
# Conditions: SGF pH 1.5, pepsin:polypeptide 1:20 w/w, 37° C.; produced in E. coli unless otherwise noted
# Method: Nutritive polypeptide half-life during simulated digestion. One metric for quantifying the breakdown of polypeptides from an intact form to smaller peptides is the intact half-life. In this experiment the nutritive polypeptide was exposed to a series of proteases that are active in the stomach (pepsin) and intestine (trypsin and chymotrypsin), and the presence of intact protein was measured over time. Specifically, the nutritive polypeptide was first treated at a concentration of 2 g/L with simulated gastric fluid (SGF) (0.03 M NaCl, titrated with HCl to pH 1.5 with a final pepsin: polypeptide ratio of 1:20 w/w) at 37° C. Time points were sampled from the reaction and quenched by addition of 0.2 M Na2CO3. […] Time points were sampled from the reaction and quenched by addition of Trypsin/Chymotrypsin Inhibitor (Sigma) solution until 240 min.
# Time point samples were analyzed for intact protein by chip electrophoresis, polyacrylamide gel electrophoresis, or western blot. For chip electrophoresis (Labchip GX II), samples were analyzed using a HT Low MW Protein Express LabChip® Kit (following the manufacturer's protocol). A protein ladder was loaded every 12 samples for molecular weight determination (kDa) and quantification. For polyacrylamide gel electrophoresis, samples (1 μg) were separated on a NuPAGE® Novex® Bis-Tris Precast gel (Life Technologies) according to the manufacturer's protocol. The gel was stained using SimplyBlue™ SafeStain (Invitrogen) and imaged using a Chemidoc XRS+ (BioRad) or transferred onto nitrocellulose membranes using the iBlot® Dry Blotting System (Life Technologies) and iBlot® Western Detection Kit (Life Technologies) according to the manufacturer's protocol. Proteins were detected by blotting with Anti-His [C-term]-HRP antibody diluted 3:5000 in Blok™-PO Blocking Buffer using the SNAP i.d.® Protein Detection System (Millipore) according to the manufacturer's protocol. Blots were treated with Luminata Classico Western HRP Substrate (Millipore) according to the manufacturer's protocol and imaged using chemiluminescent detection on the Molecular Imager® Gel Doc™ XR+ System (Bio-Rad). Quantification of intact protein was determined by densitometry using ImageLab (BioRad). For all analysis methods the relative concentration of the polypeptide at each time point (if detected) was plotted overtime and fit to an exponential curve to calculate the intact half-life.
# Specifically, the t=0 (enzyme-free control) and t=2 min samples from the SGF digest were analyzed for intact protein as described by chip electrophoresis, SDS-PAGE, western blot, and/or LC-MS/MS. Relative quantities of polypeptides at each time point were determined and the percentage of intact protein remaining at t=2 was determined.
row,Molecule,SGF Half-life (t½)
1,"SEQID-00284: nutritive polypeptide (protein, listed as Arabidopsis thaliana) KLEHGVHVVSGTPGRVCDMIKRRSLRTRAIKLLILDESDEMLSRGFKDQIYDVYRYLPPDLQVCLVSATLPHEILEMTSKFMTEPVKILVKRDELTLEGIKQFFVAVEKEEWK",60 s
2,"SEQID-00298 (AN): nutritive polypeptide naturally produced in Cow (protein, listed as Bos taurus) MGLSDGEWQLVLNAWGKVEADVAGHGQEVLIRLFTGHPETLEKFDKFKHLKTEAEMKASEDLKKHGNTVLTALGGILKKKGHHEAEVKHLAESHANKHKIPVKYLEFISDAIIHVLHAKHPSDFGADAQAAMSKALELFRNDMAAQYKVLGFHG",18 s
3,"SEQID-00298 (BS): nutritive polypeptide naturally produced in Cow (protein, listed as Bos taurus) MGLSDGEWQLVLNAWGKVEADVAGHGQEVLIRLFTGHPETLEKFDKFKHLKTEAEMKASEDLKKHGNTVLTALGGILKKKGHHEAEVKHLAESHANKHKIPVKYLEFISDAIIHVLHAKHPSDFGADAQAAMSKALELFRNDMAAQYKVLGFHG",6 s
4,"SEQID-00338 (BS): nutritive polypeptide (protein, listed as Saccharomyces cerevisiae, strain ATCC 204508 / S288c) MSSSESIRMVLIGPPGAGKGTQAPNLQERFHAAHLATGDMLRSQIAKGTQLGLEAKKIMDQGGLVSDDIMVNMIKDELTNNPACKNGFILDGFPRTIPQAEKLDQMLKEQGTPLEKAIELKVDDELLVARITGRLIHPASGRSYHKIFNPPKEDMKDDVTGEALVQRSDDNADALKKRLAAYHAQTEPIVDFYKKTGIWAGVDASQPPATVWADILNKLGKD",12 s
5,"SEQID-00343: nutritive polypeptide (protein, Glycine max) MATLIAPSHHSRVEDAEALRNAFKGWGADDKAIIAILGHRNVHQRQEIRKAYEEIYQEDLIKRLESEISGDFERAMYRWMLQPADRDAVLVNVAIKNGTKDYHVIAEIACVLSAEELLAVRRAYHRRYKCSLEEDVAANTTGNLRQLLVGLVTSYRYEGDEINVKFSQTEANVLHESVKEKKGNSEEVIRILTTRSKTQLVATFNRYRDEHGISISKKLLDQTSDDFHKVLHTAIRCINDHKKYYEKVLRNAVKKFGTDEDGLSRVIVTRAEKDLKDIKELYYKRNSVHLEDEVSKETSGDYKKFLLTLLGK",18 s
6,"SEQID-00345: nutritive polypeptide (protein, Arthrospira platensis NIES-39) MNTLDLQNQRILVTGGAGFLGKQVIDQLLKAGAKSENISVPRSHNCDLRNLEACQQAAKGQDIIIHLAAHVGGIGLNQVKPAELFYDNLMMGTQLIHSAYQAGVKKFVCVGTICAYPKFTPVPFQEDDLWNGYPEETNAPYGIAKKALLVQLQAYRQQYGFNGIYLLPVNLYGPEDNFNPKSSHVIPALVRKVYEAQQRGDKQLPVWGDGSPSREFLYSTDAARGIVMATQHYDEPDPVNLGTNSEVTIRDLVELICELMEFQGEIVWETDKPNGQPRRCLDTNRAKERFGFVAEVEFRQGLKNTIDWYRQNPDL",48 s
7,"SEQID-00346: nutritive polypeptide (protein, Arthrospira platensis NIES-39) MYYDADANLDLLAGKTIAIVGYGSQGHAHALNLKDSGMNVIVGLYPGSKSATKAKDAGLTVYPVDEAAKIADLIMILLPDEVQKTVYKNEIEPNLSEGKTLAFAHGFNIHFGQVVPPENVDVIMVAPKGPGHLVRRTYQEGQGVPCLFAVYQDASGQARDRAMAYAKGIGGTRGGILETTFREETETDLFGEQAVLCGGLSALIKAGFETLVEAGYQPELAYFECLHEVKLIVDLVVEGGLAQMRDSISNTAEYGDYTRGPRVITDATRAEMRKILKEIQTGQFAREFVLENQSGKAGFTAMRRQEAEHPIEEVGHDLRAMFSWLKKKA",12 s
8,"SEQID-00354: nutritive polypeptide (protein, Ovis aries) MSLSNKLTLDKLDVKGKRVVMRVDFNVPMKNNQITNNQRIKAAVPSIKYCLDSGAKSVVLMSHLGRPDGVPMPDKYSLQPVAVELKSLLGKDVLFLKDCVGPEVEKACADPAAGSVILLENLRFHVEEEGKGKDASGNKVKAEPTKIEAFRASLSKLGDVYVNDAFGTAHRAHSSMVGVNLPKKAGGFLMKKELNYFAKALESPERPFLAILGGAKVADKIQLISNMLDKVNEMIIGGGMAFTFLKVLNNMEIGTSLFDEEGSKIVKDLMSKADKNGVKITLPVDFVTADKFDENAKTGQATVASGIPVGWMGLDCGPESSKKYAEAVARAKQIVWNGPVGVFEWEAFARGTKALMDEVVKATSRGCITIIGGGDTATCCAKWNTEDKVSHVSTGGGASLELLEGKVLPGVDALSSV",12 s
9,"SEQID-00356: nutritive polypeptide (protein, Glycine max) MATAAEKLSALKSAVAGLNEISENEKNGFISLVGRYLSGEAQHVEWSKIQTPTDEVVVPYDTLAPTPEGSSEVKNLLDKLVVLKLNGGLGTTMGCTGPKSVIEVRDGLTFLDLIVIQIENLNSKYGSNVPLLLMNSFNTHDDTQKIVEKYQNSNIEIHTFNQSQYPRLVVEDFLPLPSKGHTDKDGWYPPGHGDVFPSLLNSGKLDALLSQGKEYVFVANSDNLGAIVDLKILNHLIQNKNEYCMEVTPKTLADVKGGTLISYEGRVQLLEIAQVPDEHVNEFKSIEKFKIFNTNNLWVNLNAVKRLVEADALKMEIIPNPKEVDGIKVLQLETAAGAAIRFFDKAIGINVPRSRFLPVKATSDLLLVQSDLYTLEDGFVIRNKARENPENPSIELGPEFKKVSNFLGRFKSIPSIVELDSLKVAGDVWFGAGVILKGKVSIVSKPGVKLEVPDGVAIVDKEINGPEDL",12 s
10,"SEQID-00357: nutritive polypeptide (protein, Arthrospira platensis NIES-39) MKPLNRRTKIVATIGPASNSREVLYQMIQAGMNVVRLNFSHGSHEQHTKTVALLKEISQELKTSITLLQDLQGPKIRVGQLPDGGIQLMAGEYITLVPIDQYESKPNTIAIDYLHLGEEAEIGAQVLLDDGLLELKVEEISGNQVKCKIIEGGTLKSRKGVNLPSLTLRLPSLTEKDQQDLEFGISLGVDWVSLSFVRNAEDVRVLKDFLASKNASQISVMAKIEKPQAIANLEEIISECNGLMVARGDLGVEMSPERVPLLQKQIIRLCNQKGIPVITATQMLDSMINNPRPTRAEASDVANAIIDGTDAVMLSGESAVGKYPIRAVEMLAKIAEDVEPEINFINYPPAFNDETHAISEAINTIDKIIDLHCIIAYTCSGYTGQLAAAERPKAPVVALTPNPKVYHRLNLVWGVKPLLLEQEVESFEELINQAQTYLLVRQMASPGDKILIIGGIPSGKAKGTNFIKIHTIG",12 s
11,"SEQID-00359: nutritive polypeptide naturally produced in Sheep, recombinantly expressed in E. coli (protein, Arthrospira platensis NIES-39) MLELGSQRNRAKNNHIGDLMSQSFESLGISEQRARHLETLGFTEPTPVQIQAIPEMLSGRDVVGMAQTGTGKTAAFSLPILEQIDVHAAGIQALVLTPTRELAMQVKEAIRTFSDDNALYVLTVYGGQSIDRQIQRLRRGVQVVVGTPGRILDLLNRGELKLDLLRWLVLDEADEMLSMGFIQDVEKILESADSEHRQTAFFSATMDASISKLVRRHLKSPVTVKVETPKATPKRIEQSVYMVPRGWSKARALEPILELEDPESAIIFVRTKQSAADLTNQLQAAGHSVDEYHGNLNQSQRERLLMRLRRRQVRWIVATDIAARGLDVDHLTHVINYDLPDQVDSYVHRIGRTGRAGREGKAITLIQPIDRRKLRNIERHLRQTLSIQSIPKRAEIEARYIDRLKDRVRDALAGERMASFLPIVSQLSEEYDPHAIAAAALQLAYDQTRPASIGRDDYEDDDDAVSNKPKLIKRRRPASVSNNS",12 s
12,"SEQID-00363 (E. coli): nutritive polypeptide (protein, Aspergillus niger) ATLDSWLSNEATVARTAILNNIGADGAWVSGADSGIVVASPSTDNPDYFYTWTRDSGLVLKTLVDLFRNGDTSLLSTIENYISAQAIVQGISNPSGDLSSGAGLGEPKFNVDETAYTGSWGRPQRDGPALRATAMIGFGQWLLDNGYTSTATDIVWPLVRNDLSYVAQYWNQTGYDLWEEVNGSSFFTIAVQHRALVEGSAFATAVGSSCSWCDSQAPEILCYLQSFWTGSFILANFDSSRSGKDANTLLGSIHTFDPEAACDDSTFQPCSPRALANHKEVVDSFRSIYTLNDGLSDSEAVAVGRYPEDTYYNGNPWFLCTLAAAEQLYDALYQWDKQGSLEVTDVSLDFFKALYSDAATGTYSSSSSTYSSIVDAVKTFADGFVSIVETHAASNGSMSEQYDKSDGEQLSARDLTWSYAALLTANNRRNSVVPASWGETSASSVPGTCAATSAIGTYSSVTVTSWPSIVATGGTTTTATPTGSGSVTSTSKTTATASKTSTSTSSTSCTTPTAVAVTFDLTATTTYGENIYLVGSISQLGDWETSDGIALSADKYTSSDPLWYVTVTLPAGESFEYKFIRIESDDSVEWESDPNREYTVPQACGTSTATVTDTWR",<600 s
13,"SEQID-00407 (BS): a-amylase in Bacillus subtilis (amyE); Wild-type of Tables E37A and E38E (protein, listed as Bacillus subtilis, strain 168) ETANKSNELTAPSIKSGTILHAWNWSFNTLKHNMKDIHDAGYTAIQTSPINQVKEGNQGDKSMSNWYWLYQPTSYQIGNRYLGTEQEFKEMCAAAEEYGIKVIVDAVINHTTSDYAAISNEVKSIPNWTHGNTQIKNWSDRWDVTQNSLLGLYDWNTQNTQVQSYLKRFLDRALNDGADGFRFDAAKHIELPDDGSYGSQFWPNITNTSAEFQYGEILQDSASRDAAYANYMDVTASNYGHSIRSALKNRNLGVSNISHYASDVSADKLVTWVESHDTYANDDEESTWMSDDDIRLGWAVIASRSGSTPLFFSRPEGGGNGVRFPGKSQIGDRGSALFEDQAITAVNRFHNVMAGQPEELSNPNGNNQIFMNQRGSHGVVLANAGSSSVSINTATKLPDGRYDNKAGAGSFQVNDGKLTGTINARSVAVLYPDDIAKAPHVFLENYKTGVTHSFNDQLTITLRADANTTKAVYQINNGPETAFKDGDQFTIGKGDPFGKTYTIMLKGTNSDGVTRTEKYSFVKRDPASAKTIGYQNPNHWSQVNAYIYKHDGSRVIELTGSWPGKPMTKNADGIYTLTLPADTDTTNAKVIFNNGSAQVPGQNQPGFDYVLNGLYNDSGLSGSLPH",12 s
